Laboratory results as given in the nanobody polyreactivity screen of Harvey et al. (2022).

Assay: yeast display, Sf9 membrane polyspecificity reagent, FACS + sequencing; frameworks hold sequencing errors
Outline: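 In a synthetic yeast display library (Saccharomyces cerevisiae BJ5465), nanobody expression was induced with galactose for 36–48 hours. FACS gates were set low and high (top ~1%) using anti-HA fluorescence for expression and streptavidin fluorescence for binding of the Sf9 membrane reagent. Each polyreactivity label is drawn from the gate of origin.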

Sequence | polyreactivity (PSR sort gate)
QVQLVESGGGLVQAGGSLRLSCAASGGIFGLYTMGWYRQAPGKERELVAAISKTGGSTYYADSVKGRFTISRDNAKNTVYLQMNSLKPEDTAVYYCAKAGRYANLPYGYWGQGTQVTVSS | high polyreactivity
QVQLVESGGGLVQAGGSLRLSCAASGGIFGRNAMGWYRQAPGKEMELVAAISSSGGTTYYADSVKGRFTISRDYAKNTVYLQMNSMKPEDTAVYYCNAAYYWRSFHDDYFGQGTQVTVSS | high polyreactivity
QVQLVESGGGLVQAGGSLRLSCAASGGIFGSYAMGWYRQAPGKERELVAAISGGSTYYADSVKGRFTISRDNAKNTVYLQMTSLKPEDTAVYYCAAGWSVWYQDFDYWGQGTQVTVSS | high polyreactivity
QVQLVESGGGLVQAGGSLRLSCAASGGIFGSYAMGWYRQAPGKERELVAAISWRGGSTYYADSVKGRFTISRDNAKNTVYLQMNSLKPEDTAVYYCAARYRWGYSTSYSYRFDYWGQGTQVTVSS | high polyreactivity
QVQLVESGGGLVQAGGSLRLSCAASGGIFGSYTMGWYRQAPGKERELVAGISDSGGSTYYADSVKGRFTISRDNAKNIVYLQMNSLKPEDTAVYYCAAVEAYGQEYDYWGQGTQVTVSS | low polyreactivity
QVQLVESGGGLVQAGGSLRLSCAASGGIFGYYAMGWYRQAPGKERELVAAINYSGGSTYYADSVKGRFTISRDNAKNTVYLQMNSLKPEDTAVYYCNAVVRDYTFRYYYWGQGTQVTVSS | low polyreactivity
QVQLVESGGGLVQAGGSLRLSCAASGGIFGYYAMGWYRQAPGKERELVAAISSSGGSTYYADSVKGRFTISRDNAKNTVYLQMNSLKPEDTAVYYCAAYRKVGGFSRGDYWGQGTQVTVSS | high polyreactivity
QVQLVESGGGLVQAGGSLRLSCAASGGIFGYYTMGWYRQAPGKERELVAAITWRGSTYYADSVKGRFTISRDNAKNTVYLQMNSLKPEDTAVYYCAARYYSPYGYCGQGTQVTVSS | high polyreactivity
QVQLVESGGGLVQAGGSLRLSCAASGGIFHYYAMGWYRQAPGKERELVAAISWNTGSTYYADSVKGRFTISRDNAKNTVYLQMNSLKPVDTAVYYCAASYRSPWLRYDYWGQGTQVTVSS | high polyreactivity
QVQLVESGGGLVQAGGSLRLSCAASGGIFIDYALGWYRQAPGKERELVAAITYSGTSTSYADSVKGRFTISRDNAKITVYLQMNSLKPEDTAVYYCNTYPVLFYVGLDYWGQGTQVTVSS | low polyreactivity
QVQLVESGGGLVQAGGSLRLSCAASGGIFIFYAMGWYRQAPGKERELVAAISNVSSTNYADSVKGRFTISRDNAQNTVYLQMNSLKPEDTAVYYCNAVCVPSEYYSWGQGSQVTVSS | low polyreactivity
QVQLVESGGGLVQAGGSLRLSCAASGGIFKRNTMGWYRQAPGKERELGAGISWTGGRTYYADSVKGRFTISRDTAKNTVYLQMNSLKPEDTAVYYCAAKPLQGVRRVEYWGQGTQVTVSS | high polyreactivity
QVQLVESGGGLVQAGGSLRLSCAASGGIFKSNTMGWYRQAPGKERELFAAITSGGSTNYADSVKGRFTISRDNAKNTVYLQMNSLKPEDTAVYYCNTDDRYYTPSRAVFQYDYWGQGTQVTVSS | low polyreactivity
QVQLVESGGGLVQAGGSLRLSCAASGGIFLSNAMGWYRQAPGKERELVAAISRSGGSTYYADSVKWRFTISRDNAKNTVYLQMYSLKPEDTAVYYCAARWTRNYGMNYWGQGTQVTVSS | high polyreactivity
QVQLVESGGGLVQAGGSLRLSCAASGGIFLVNDMGWYRQAPGKERELFAAITSGGGTYYADSVKGRFTISRDNAKNTVYLQMNSLKPEDTAVYYCARDTYRQIVSNESYGYWGQGTQVTVSS | low polyreactivity
QVQLVESGGGLVQAGGSLRLSCAASGGIFNYYAMGWYRQAPGKERELVAAISASGGSTYYADSVKGRFTISRDNAKNTVYLQMNSLKQEDTAVYYCAAKYPQKTPVNSYGNSFYYWGQGTQVTVSS | low polyreactivity

Sequence | polyreactivity (PSR sort gate)
QVQLVESGGGLVQAGGSLRLSCAASGGIFPSYAMGWYRQAPGKERELVAAITRGASTYADSVKGRFTISRDNAKNTVYLQMNSLKPEDTAVYYCAADTKRRSIRYDYWGQGTQVTVSS | high polyreactivity
QVQLVESGGGLVQAGGSLRLSCAASGGIFPYYAMGLYRQAPGKERELVADISSGGSTYYEDSVKGRFTISRDNAKNTVYLQMNSLKPEDTAVYYCAAEDTLAGSVARFGEYDYWGQGTQVTVSS | low polyreactivity
QVQLVESGGGLVQAGGSLRLSCAASGGIFPYYAMGWYSQAPGKEMELVAGISQNDGRTYYADSVKGRFTISRDNAKNTVYLQMNSLKPEDTAVYYCATVYWYPRYGYWGQGTQVTVSS | low polyreactivity
QVQLVESGGGLVQAGGSLRLSCAASGGIFQENAMGWYRPAPGKERELVATITRSTGSTYYADSVKGRFTISRDNAKNTVYLQMNSLKPEDTAVYYCAARRRSQYYRYAYKYDYWGQGTQVTVSS | high polyreactivity
QVQLVESGGGLVQAGGSLRLSCAASGGIFQENAMGWYRQAPGKERELVATITRSTGSTYYADSVKGRFTISRDNAKNTVYLQMNSLKPEDTAVYYCAARRRSQYYRYAYKYDYWGQGTQVTVSS | high polyreactivity
QVQLVESGGGLVQAGGSLRLSCAASGGIFQGNVMGWYRQAPGKERELVASIRRGGSTNYADSVKGRFTISRDNAKNTVYLQMNSLKPEDTAVYYCSARKWVGYHVWPLREYNYWGQGTQVTVSS | low polyreactivity
QVQLVESGGGLVQAGGSLRLSCAASGGIFRFNAMGWYRQAPGKERELVAGISSTYYADSVKGRFTISRDNAKNTVYLQMNSLKPEDTAVYYCAAAGPEEHGYTYPGNNQMEYWGQGTQVTVSS | low polyreactivity
QVQLVESGGGLVQAGGSLRLSCAASGGIFRGYAMGCYRQAPGKERELVATITFSGTSTYYADSVKGRFTISRDNAKNTVYLQMNSLKPEDTAVYYCNADWWFKYDYWGQGTQVTVSS | low polyreactivity
QVQLVESGGGLVQAGGSLRLSCAASGGIFRGYAMGWYRQAPGKERELVATITFSGTSTNYADSVKGRFTISRDNAKNTVYFQMNRLKPEDTAVYYFAAGPVFGGGGYDYWGKGTQVTVSS | low polyreactivity
QVQLVESGGGLVQAGGSLRLSCAASGGIFRYYAMGWSRQAPGKEMELVAAITRGGRTSYADSVKGRFTISRDNAKNSVYLQMNSLKPEDTAVYYCNAKRPYQEHNSYGYWGQGTLVTVSS | high polyreactivity
QVQLVESGGGLVQAGGSLRLSCAASGGIFSRYAIGWYRQAPGKEREFVAAISFSGASTYYADSVKGRFTISRDNAKNTVYLQMNSLKPEDTAVYYCAADRVWPYYQYDYWGQGTQVTVSS | low polyreactivity
QVQLVESGGGLVQAGGSLRLSCAASGGIFSSYAMGWYRPAPGKERELVAAISSSSGSTYYADSVKGRFTISRDNAKNTVYLQMNSLKPEDTGVYYCAADSGHPDWYYYCGQGTQVTVSS | high polyreactivity
QVQLVESGGGLVQAGGSLRLSCAASGGIFSTNGMGWYRQAPGKERELVATISYGGGSTSYADSVKGRFTISRDNAKNTVYLHMNSLKPEDTAVYYCAADSFGYNSWYNYDYWGQGSQVTVSS | low polyreactivity
QVQLVESGGGLVQAGGSLRLSCAASGGIFSWYAMGWYRQAPGKERELVAAISWSGSRTYYADSVKGRFTISRDNAKNTVYLQMNCLKPEDTAVYYCAADYIFRRYPVGGIYDYDYWGQGTQVTVSS | high polyreactivity
QVQLVESGGGLVQAGGSLRLSCAASGGIFSWYDMGWYREAPGKERELVAAISWSGGSTYYADSVKGRFTISRDNAKHTVYLQMNSLKPEDTAVYYCAAYTADDYDYWGQGTQVTVSS | high polyreactivity
QVQLVESGGGLVQAGGSLRLSCAASGGIFSYNAMGWYRQAPGKERELVAAITSSGSTYYADSVKGRFTISRDNAKNTVYLQMNSLKPEDTAVYYCNAVKRNSWIRGYWGQGTQVTVSS | low polyreactivity
